# Assay results reported in the nanobody polyreactivity screen of Harvey et al. (2022).
# Experiment: yeast display, Sf9 membrane polyspecificity reagent, FACS + sequencing; frameworks hold sequencing errors
# Outline: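 Galactose-induced (36–48 hours) yeast carrying a synthetic nanobody display library were exposed to 10% biotinylated, detergent-solubilized Sf9 membrane reagent at 4 °C for 1 hour. FACS followed streptavidin microbead enrichment, using low and high (top ~1%) gates for expression (anti-HA) and reagent binding (streptavidin). Colony PCR, MiSeq 2 × 250 sequencing and CDR-length filtering followed. Labels for polyreactivity reflect the gate of origin.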
row,Sequence,polyreactivity (PSR sort gate)
1,QVQHEESGGGLVQAGGSLRLSSAASGSTFVDYDMGCYRQAPGKVRELVAGITTGGSTNYADSVKGRFTISRDNALNTVYLQLKRLKPEDTAVYYCNSDSYTNLVPDYLYYWYEYWGQGTQVTVSS,low polyreactivity
2,QVQLVESGGGLVQAGGSLRLSCAPSGRIFRKYAMGWYRQAPGKERELVAAINSRGGRTYYADSVKGRFTISRDNAKKTVYLQMNSLKPEDTAVYYCAASVGWGMDYWGQGTQVTVSS,high polyreactivity
3,QVQLVESGGGLVQARGSLRLSCAASGRIFYFYAMGWYRQAPGKERELVAAITESTSSTYYADSVKGRFTISRDNAKNTVYLQMNSLKPEDTAVYYCAARVSQWLPYGGSSRYYYWGQGTQVTVSS,high polyreactivity
4,QVQLVESGGGLVQAGGSLRLSCAASGITFYDYTMGWYRQAPGKERELVAAISSRGGSTYYADSVKGRFTISRDNAKNTVYLQMNSLKPEDTAVYYCNADYIYSFYWSFYEYDYWGQGTQVTVSS,high polyreactivity
5,QVQLVESGGGLVQAGGSLRLSCAASGLIFLTYAMGWYRQAPGKERELLATISGSTGGTYYADSVKGRFTISRDNAKNSVYLKMNSLKPEDTAVYYCNRRYGRSFRWGYCYWGEGTQVTVSS,low polyreactivity
6,QVQLEESGGGLVQAGGSLRLSCAASGRIFIKNAMGWYRQAPGKVRELVAAISARGGSTYYADSVKGRFTISRDIAKNTVYLEMNSLKPEDTAVYDCAVDVYEPRYRRPLHHDYWGQGTQVTVSS,low polyreactivity
7,QVQLVESGGGLVQAGGSLRLSCAASGSTFYVYAMGWYRQAPGKEREFVAAISFSSGSTYYADSVKGRFTISRDYAKNTVYLQMNSLKPEDTAVYYCAARYRYPRSIGYGYGGAFDYWGQGTQVTVSS,high polyreactivity
8,QVQLVESGGGLVQAGGSLRLSCAASGSTFYYYVMGWYRQAPGKERELVATITSGGSTNYADSVKGRFTISRDNAKNTVYLQMNSLKPEDTAVYYCAADWYLIIARSRPTLDYDYWGQGTQVTVSS,low polyreactivity
9,QVHLVESGGRLVQAGGSIRLSCAASGLTYGSYAMGWYRQAPGKERELVAAIYQSGGSTYYADSVMARFTISRDNANNTVYLQMNRLKPEDTVVYYCNAEAWVTLDWWQWVAYDFWGQGTQVTVSS,high polyreactivity
10,QVQIVESGGGLVQAGGSLRLSCAASGSILLYYPIGWYRQAPAKEREWVARITGSGSRTYYADSVKGRFTISRDNAKNTVFVQMHSVKPEDNAVYYCAADFSGHGWESVVGYGYWGQGTQVTVSS,low polyreactivity
11,QDQLEESGGGLVQAGGSLRLSCAATGITFSSNAMGWYRQAPGKERELVAAISWSGGSTYYADSVKGRFTISRDYAKNTVYLQMNSLKPEDTAVYYCNASKHNPYGGDYWGQGTQVTVSS,high polyreactivity
12,QVQLVESGGGFVQAGGSLRLSSAASGRTFYFYTMLWYRQAPGKERELVAAISWSGGSTYYADSVKGRFTISRDNAKNTVYLQMNSLKPEDTAVYYCAASSPWDQSNDQFYYWGQGTQVTVSS,low polyreactivity
13,QVQLVESGGGLVQAGGSLRLSCAASGFIFSSNAMGGYRQAPGKERELDATISFSGDSTYYADSVKGRFTISRDNEKNTVYLQMNSLKPEDTAVYYCARSTYYRWYKYGYYDYNYWGQGTQVTVSS,low polyreactivity
14,QVQLVESGGGLVQAGGSLRLSCAASGSIFGTYAMGWYIQAPGKEREFVAAISWSDGSTYYADSVKGRFTISRDNAKNTVYLQMNSLKPEDTAVYYCAAGPSQYTEFDYWGQGTQVTVSS,low polyreactivity
15,QVQLVESGGGIVQPGGSLRLSCAASGSIFGYNAIGWYRQAPGKERELVAAISTSSGSTYYADSVKGRFTISRDNAKNTVFLQMNSLKPEDTAVYYCAARDRPFGRYDYWGQATQVTVSS,low polyreactivity
16,QVQLVESGGGLVQAGGSLRLSCAASGNIFYGYAMGWYRQAPGKERELVAAISGSSTYYADSVKGRFTISRDNAKNTVYLEMNSLKPEDTAVYYCAVPQYLYLQAGHGYRYYYWGQGTQVTVSS,high polyreactivity

row,Sequence,polyreactivity (PSR sort gate)
1,QVQLVESGGGLVQAGGSLRLSCAASGRTFRWNAMGLYRQAPGKERELVADITSGGSTYYADSVKGRFTISSDNAKNTVYLQMNSLKPEDTAVYYCKAYYYYQFPAPASKYDYWGQGTQVTVSS,high polyreactivity
2,QVQLVESGVGLVQAAGSLRLSCAASGFIFWVNAMGWYRQAPGKEREFVAAIRSSGGNTYYADSVKGRFTISRDNAKNTVYLQMNSLKPEDTAVYYCAADSVIVTYESDYWGQGTQVTVSS,low polyreactivity
3,QVQLVESGGGLVQAGGSLRLSFAASGNIFSFNDMGWYRQAPGQERELVAAITSSDSTNYADSVKGRFTISRDNAKNTVYLQMNSLKPEDTAVYYCATEILTAARETVVYQFYLGYYYWGQGTQVTVSS,low polyreactivity
4,QVQVVESGGGFVQAGGSLRISCAASGRIFATYAMGWYRQAPGKERELVAAISDSGGRTYYADSVKGRFTISRDTAKNTVYFQMNSLKPEDTAVYYCNARGTRASRYDYWGQGTQVTVSS,high polyreactivity
5,QVQLVESGGGLVQAGGSLRLSCAASGSIFNLNAMGWYRQAPGKEREFVAGITYSAGRTYYADSVKGRFTISRDNAKNTVYLQMNSLKPEDTAVYYCAARIYSKFTSYGILDSWGQGTQVTVSS,high polyreactivity
6,QVQLVESGGGILQAGGSLRLSCAASGSTFSYYAMGWYRQAPGKERELVAAISYSGGRTYYADSVKGRFTISRDNAKNTVYLQMNSLKPEDTAVYYCAASGVFDSTRGVYYWGQGTQVTVSS,high polyreactivity
7,QVQLVESGGGLDQAGGSLRLSCAASGITFLDNDMGWYRQAPGKERELVAAINSGVSTYYADSVKGRFTISLDNAKNTVYLQMNSLKPEDTAVYYCAADRPDVAGDYWGQGTQVTVSS,low polyreactivity
8,QVQLVESGGGLVQAGGSLRLSCAASGRTFKYNAMGWYRQAPGKERELVATISGSGGRTYYADSVKGRFTISRDNAKNTVYLQMNSLTPEDTAVYYCAAVPSYHSTSPFYYWGLGTQVTVSS,high polyreactivity
9,QVQLVESGGGLVQAGGSLRLSCAASGSTFYYYAMGWSRQAPGKERELVAGITWSGGRTYYADSVKGRFTISRDNAKNTVYLQMNSLKTEDTAVYYCAASLYTWTYQPVYYRDGYWGQGTQVTVSS,low polyreactivity
10,QDQLVESGGGLVQAGGSLRLSCAASGRTFYIYAMGWYRQATGKERELVAAISSYTSTKYADSVKGRFTISRDNAKNTVYLQMICLKPEDTAVYYCASGYPVRYRGYLNWSYYAYDYWGQGTQVTVSS,low polyreactivity
11,QVQLVESGGGLVQAGGSLRLSCAPSGRTFYSYAMGWYRHAPGKERELGAAITSSGGSTYYADSVKGRFTISRDNAKNTVYLQMNSLKPEDTAVYDCAAGKPYSSYWSWGYWTNLEDDYWGQGTQVNVSS,high polyreactivity
12,QVNLVESGGGLVQAGGSLRLSCAASGIIFRSYAMGWYRPAPGKARELVADITSTGTSTYYADSVKGRFTISRDNAKNTVYLQMNSLKPEDNAVYYCNADRFGFYPQRDYWGQGTQVTVSW,high polyreactivity
13,QVQLVESGGGLVQAGGSLRLSCAASGLIFARYVMGWYRHAPGKERELVADIDKGGGSTYYADSVKGRFTISRDNAKNTDSLQMNSLKPEDSSVYYCIADFDGWWWDDYRGQGTQVTVSS,high polyreactivity
14,QVQLVESGGGLVQAGGSLRLSCAASGYTFPTYAMGWYRQAPGKERELVAAISIDDGITYYADSVKGRFTISRDNAKNTVYLQMNSLKPEDTAVYYCAADVGIEYDYWGQGTQVTVSS,high polyreactivity
15,QVQLVESGGGLVQAGGILRLSCAASGRILDYYAMGWYRQAPGKERELVAAISRSGSDTYYADSVKGRFTISRDNAKNTVYLQMNSLKPEETAVYYCAARWSYRSLARYNYWGQGTQVTVSS,low polyreactivity
